Source: PMC6642173, “Acetylation regulates ribonucleotide reductase activity and cancer cell growth” (Nature Communications, 2019)

Biological target: the molecule itself
Test: cross-linking; purified recombinant RRM2 proteins cross-linked with 2 mM disuccinimidylsuberate (DSS), SDS-PAGE

| Protein | stoichiometry N |
| --- | --- |
| Recombinant His6-tagged WT RRM2 (natural protein, human, UniProt P31350 1-389, looked up, RRM2, human; Purification may be described in the Supplementary Methods; also called recombinant RRM2 WT; source: E. coli, purified) MLSLRVPLAPITDPQQLQLSPLKGLSLVDKENTPPALSGTRVLASKTARRIFQEPTEPKTKAAAPGVEDEPLLRENPRRFVIFPIEYHDIWQMYKKAEASFWTAEEVDLSKDIQHWESLKPEERYFISHVLAFFAASDGIVNENLVERFSQEVQITEARCFYGFQIAMENIHSEMYSLLIDTYIKDPKEREFLFNAIETMPCVKKKADWALRWIGDKEATYGERVVAFAAVEGIFFSGSFASIFWLKKRGLMPGLTFSNELISRDEGLHCDFACLMFKHLVHKPSEERVREIIINAVRIEQEFLTEALPVKLIGMNCTLMKQYIEFVADRLMLELGFSKVFRVENPFDFMENISLEGKTNFFEKRVGEYQRMGVMSSPTENSFTLDADF | 2 |
| Recombinant K95R RRM2 (natural protein, human, UniProt P31350 1-389, looked up, RRM2, human, with K95R; Probably His6-tagged and made in E. coli like the WT and K95Q proteins; source: recombinant, purified) MLSLRVPLAPITDPQQLQLSPLKGLSLVDKENTPPALSGTRVLASKTARRIFQEPTEPKTKAAAPGVEDEPLLRENPRRFVIFPIEYHDIWQMYRKAEASFWTAEEVDLSKDIQHWESLKPEERYFISHVLAFFAASDGIVNENLVERFSQEVQITEARCFYGFQIAMENIHSEMYSLLIDTYIKDPKEREFLFNAIETMPCVKKKADWALRWIGDKEATYGERVVAFAAVEGIFFSGSFASIFWLKKRGLMPGLTFSNELISRDEGLHCDFACLMFKHLVHKPSEERVREIIINAVRIEQEFLTEALPVKLIGMNCTLMKQYIEFVADRLMLELGFSKVFRVENPFDFMENISLEGKTNFFEKRVGEYQRMGVMSSPTENSFTLDADF | 2 |
